Source: US20210130452A1 (Merck KGaA, published 2021)
Values belong to the binder of their own block, whether it stands above or below them.

Tests used:
human IL-17A [1] = molecular target: T1, human IL-17A (human, UniProt Q16552 24-155, biotinylated with Sulfo-NHS-LC-Biotin in the AlphaScreen assays only); experiment: cell-based or functional assay
[2] = molecular target: T2, human IL-17A/F heterodimer (human, UniProt Q16552 24-155; Q96PD4 31-163, limits assumed, biotinylated with Sulfo-NHS-LC-Biotin in the AlphaScreen assays only); experiment: AlphaScreen competition, hIL-17A/F - IL-17RA-Fc
T2 construct: also called hIL-17A/F
Target sequence in this assay (Q16552 24-155 limits assumed, chain 1 of 2, one chain of several): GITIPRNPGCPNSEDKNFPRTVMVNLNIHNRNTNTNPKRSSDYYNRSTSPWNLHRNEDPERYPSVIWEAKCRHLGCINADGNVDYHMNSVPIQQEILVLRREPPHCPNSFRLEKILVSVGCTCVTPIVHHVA
Method: (§1) To this mixture, the IL-17RA or IL-17RC Fc-fusions, Acceptor beads and the streptavidin Donor beads were added and further incubated for 1 hour at RT.

[3] = molecular target: T2, human IL-17A/F heterodimer; experiment: cell-based or functional assay
Target sequence in this assay (Q16552 24-155 limits assumed, chain 1 of 2, one chain of several): as above

[4] = molecular target: T2, human IL-17A/F heterodimer; experiment: SPR Biacore, hIL-17A/F on chip; purified protein
human IL-17A [5] = molecular target: T1, human IL-17A; experiment: AlphaScreen competition, hIL-17A - IL-17RC-Fc;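 note: Read-out after 1 h at room temperature with the receptor Fc-fusion, Acceptor beads and streptavidin-coated Donor beads present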
Method: as §1

human IL-17A [6] = molecular target: T1, human IL-17A; experiment: AlphaScreen competition, hIL-17A - IL-17RA-Fc;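 note: receptor Fc-fusion plus Acceptor and streptavidin Donor beads incubated with the mixture for 1 h at room temperature before reading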
Method: as §1

[7] = molecular target: T2, human IL-17A/F heterodimer; experiment: AlphaScreen competition, hIL-17A/F - IL-17RC-Fc
Target sequence in this assay (Q16552 24-155 limits assumed, chain 1 of 2, one chain of several): as above
Method: as §1

human IL-17A [8] = molecular target: T1, human IL-17A; experiment: SPR Biacore, hIL-17A on chip; purified protein
human IL-17F [9] = molecular target: T3, human IL-17F (human, UniProt Q96PD4 31-163, biotinylated with Sulfo-NHS-LC-Biotin in the AlphaScreen assays only); experiment: AlphaScreen competition, hIL-17F - IL-17RA-Fc
T3 construct: also called hIL-17F; recombinant human IL-17F
T3 sequence: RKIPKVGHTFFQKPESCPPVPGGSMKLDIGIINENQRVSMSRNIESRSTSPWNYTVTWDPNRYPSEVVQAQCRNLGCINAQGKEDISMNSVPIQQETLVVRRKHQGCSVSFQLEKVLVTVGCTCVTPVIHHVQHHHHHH
Method: as §1

human IL-17F [10] = molecular target: T3, human IL-17F; experiment: AlphaScreen competition, hIL-17F - IL-17RC-Fc
Method: as §1

human IL-17F [11] = molecular target: T3, human IL-17F; experiment: SPR Biacore, hIL-17F on chip; purified protein
Method: Off-rates of the periplasmic extracts containing anti-IL-17 Nanobodies were measured by Surface Plasmon Resonance (SPR) using a Biacore T100 instrument. […] Periplasmic extracts containing IL-17 neutralizing Nanobodies were injected for 2 minutes at a flow rate of 45 μl/min to allow binding to chip-bound antigen. Next, binding buffer without periplasmic extracts was sent over the chip at the same flow rate to allow spontaneous dissociation of bound Nanobody. From the sensorgrams obtained for the different periplasmic extracts koff-values (k₄) were calculated.

human IL-17F [12] = molecular target: T3, human IL-17F; experiment: cell-based or functional assay

T1 sequence (Q16552 other isoform, or with tags, fused parts or gaps): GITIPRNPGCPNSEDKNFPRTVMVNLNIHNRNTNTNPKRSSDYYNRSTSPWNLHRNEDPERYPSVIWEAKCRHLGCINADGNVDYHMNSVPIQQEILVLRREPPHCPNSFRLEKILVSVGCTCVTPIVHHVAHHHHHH

IL-17A-induced IL-6 production in HT-1080 cells, Emax (human IL-17A [1]): 105%
IL-17A-induced IL-6 production in HT-1080 cells, IC50 (human IL-17A [1]): 15.1 nM
IC50 [2]: 0.264 nM
IL-17A/F-induced IL-6 production in HT-1080 cells, Emax [3]: 107%
IL-17A/F-induced IL-6 production in HT-1080 cells, IC50 [3]: 41.8 nM
koff [4]: 0.00075 s⁻¹
IC50 (human IL-17A [5]): 0.169 nM
IC50 (human IL-17A [6]): 0.066 nM
IC50 [7]: 0.801 nM
koff (human IL-17A [8]): 0.00029 s⁻¹
IC50 (human IL-17F [9]): 0.296 nM
IC50 (human IL-17F [10]): 0.168 nM
koff (human IL-17F [11]): 0.056 s⁻¹
B1: 17C01 (VHH)
VHH: EVQLVESGGRLVQAGGSLRLPCAASGRTFTSYPMGWFRQAPGKEREFVAAISMSGDDAAYADFVRGRFTISRDDARNTVYLHMTSLKPEDTAVYYCAARTSYDGTYDYIDDYSYWGQGTQVTVSS
notes: Class 4 Nanobody (cross-reactive: anti-IL-17A, IL-17F and IL-17A/F); not shown: c-myc, His6 tag

IL-17A-induced IL-6 production in HT-1080 cells, Emax (human IL-17A [1]): 104%
IL-17A-induced IL-6 production in HT-1080 cells, IC50 (human IL-17A [1]): 20.6 nM
IC50 [2]: 0.231 nM
IL-17A/F-induced IL-6 production in HT-1080 cells, Emax [3]: 118%
IL-17A/F-induced IL-6 production in HT-1080 cells, IC50 [3]: 37.1 nM
koff [4]: 0.00012 s⁻¹
IC50 (human IL-17A [5]): 0.408 nM
IC50 (human IL-17A [6]): 0.173 nM
IC50 [7]: 0.087 nM
koff (human IL-17A [8]): 0.00022 s⁻¹
IC50 (human IL-17F [9]): 36.6 nM
IC50 (human IL-17F [10]): 13.3 nM
koff (human IL-17F [11]): 0.14 s⁻¹
B5: 18B05 (VHH)
VHH: EVQLVKSGGGLVQPGGSLRLSCAASGGTFSLFAMGWFREAPGKEREFVAAIRWSDGSSYYADSVKGRFTISRDNAKNAVHLQSNSLKSEDTAVYYCYADVQGGLHRYWGQGTQVTVSS
notes: as for B1

The remaining lines, values behind:

B2: 16A04 (VHH)
VHH: EVQLVESGGGLVQAGGSLRLSCAASGRTFSSYVVGWFRQAPGKEREFIGAISGSGDSIYYAVSEKDRFTISRDNGKNTLYLQMSSLKAEDTAVYYCTADQEFGYLRFGRSEYWGQGTQVTVSS
notes: Class 3 Nanobody (anti-IL-17F); also called IL17MS16A04; not shown: c-myc, His6 tag
IC50 [2]: 90.4 nM
IL-17A/F-induced IL-6 production in HT-1080 cells, Emax [3]: 95%
IL-17A/F-induced IL-6 production in HT-1080 cells, IC50 [3]: 48.2 nM
IL-17F-induced IL-6 production in HT-1080 cells, Emax (human IL-17F [12]): 100%
IL-17F-induced IL-6 production in HT-1080 cells, IC50 (human IL-17F [12]): 112 nM
koff [4]: 0.003 s⁻¹
IC50 (human IL-17A [5]): > 131 nM
IC50 (human IL-17A [6]): > 77.9 nM
IC50 [7]: 0.389 nM
IC50 (human IL-17F [9]): 1.09 nM
IC50 (human IL-17F [10]): 0.052 nM
koff (human IL-17F [11]): 0.00053 s⁻¹

B3: 13B03 (VHH)
VHH: EVQLVESGGGSVQAGDSLRLSCAASGRANSINWFGWFRQTPGKEREFVAGIRWSDAYTEYANSVKGRFTISRDNAKNTVDLQMDSLKPEDTAVYYCVLDLSTVRYWGQGTQVTVSS
notes: Class 4 Nanobody (cross-reactive: anti-IL-17A, IL-17F and IL-17A/F); also called IL17MS13B03; not shown: c-myc, His6 tag
IL-17A-induced IL-6 production in HT-1080 cells, Emax (human IL-17A [1]): 101%
IL-17A-induced IL-6 production in HT-1080 cells, IC50 (human IL-17A [1]): 2.9 nM
IC50 [2]: 0.079 nM
IL-17A/F-induced IL-6 production in HT-1080 cells, Emax [3]: 112%
IL-17A/F-induced IL-6 production in HT-1080 cells, IC50 [3]: 26.8 nM
IL-17F-induced IL-6 production in HT-1080 cells, Emax (human IL-17F [12]): 85.5%
IL-17F-induced IL-6 production in HT-1080 cells, IC50 (human IL-17F [12]): 149 nM
koff [4]: 3.6e-05 s⁻¹
IC50 (human IL-17A [5]): 0.202 nM
IC50 (human IL-17A [6]): 0.056 nM
IC50 [7]: 0.031 nM
koff (human IL-17A [8]): 6.3e-05 s⁻¹
IC50 (human IL-17F [9]): 2.11 nM
IC50 (human IL-17F [10]): 0.848 nM
koff (human IL-17F [11]): 0.0058 s⁻¹

B4: 13E02 (VHH)
VHH: EVQLVESGGGLVQAGGSLRLSCAASGRTYDAMGWLRQAPGKEREFVAAISGSGDDTYYADSVKGRFTISKDNAGITMYLQMNSLKPEDTAVYYCATRRGLYYVWDSNDYENWGQGTQVTVSS
notes: Class 4 Nanobody (cross-reactive: anti-IL-17A, IL-17F and IL-17A/F); also called IL17MS13E02; not shown: c-myc, His6 tag
IL-17A-induced IL-6 production in HT-1080 cells, Emax (human IL-17A [1]): 102%
IL-17A-induced IL-6 production in HT-1080 cells, IC50 (human IL-17A [1]): 3.5 nM
IC50 [2]: 0.071 nM
IL-17A/F-induced IL-6 production in HT-1080 cells, Emax [3]: 108%
IL-17A/F-induced IL-6 production in HT-1080 cells, IC50 [3]: 21.7 nM
IL-17F-induced IL-6 production in HT-1080 cells, Emax (human IL-17F [12]): 86.5%
IL-17F-induced IL-6 production in HT-1080 cells, IC50 (human IL-17F [12]): 104 nM
koff [4]: 7.1e-05 s⁻¹
IC50 (human IL-17A [5]): 0.187 nM
IC50 (human IL-17A [6]): 0.067 nM
IC50 [7]: 0.117 nM
koff (human IL-17A [8]): 0.00013 s⁻¹
IC50 (human IL-17F [9]): 0.395 nM
IC50 (human IL-17F [10]): 0.214 nM
koff (human IL-17F [11]): 0.0036 s⁻¹
